Data reported in US20130022546A1 (UNIVERSITY OF TENNESSEE RESEARCH FOUNDATION, published 2013).
Ends that are not written are not given here.

How the values were obtained:
Experiment in all cases: biotinylated peptide overlaid on formalin-fixed amyloid-containing tissue sections; list of amyloids that p31 'specifically binds significantly'
[1] = target: Aβ amyloid (Alzheimer's disease) (human, UniProt P05067 672-713)
Procedure: (§1) The peptides were overlaid onto formalin-fixed 6 μm-thick amyloid-containing tissue sections, incubated overnight and then the distribution visualized using standard immunohistochemical techniques.

[2] = target: ATTR amyloid (transthyretin amyloidosis) (human, UniProt P02766 21-147)
Procedure: as §1

AA amyloid (human) = target: T1, AA amyloid (human) (human, UniProt P0DJI8 19-94, limits assumed)
T1 construct: also called serum amyloid protein A amyloidosis
T1 sequence (looked up): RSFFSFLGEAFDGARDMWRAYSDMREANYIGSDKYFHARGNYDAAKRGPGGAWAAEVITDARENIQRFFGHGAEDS
Procedure: as §1

AA amyloid (canine) = target: T2, AA amyloid (canine) (canine, UniProt P19708 19-111)
T2 sequence (looked up): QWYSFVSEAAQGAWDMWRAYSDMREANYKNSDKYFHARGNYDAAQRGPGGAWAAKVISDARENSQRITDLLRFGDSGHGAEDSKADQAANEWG
Procedure: as §1

[3] = target: T3, ALECT2 amyloid (Lect2 amyloidosis) (human, UniProt O14960 19-151, limits assumed)
T3 construct: also called ALEC2
T3 sequence (looked up): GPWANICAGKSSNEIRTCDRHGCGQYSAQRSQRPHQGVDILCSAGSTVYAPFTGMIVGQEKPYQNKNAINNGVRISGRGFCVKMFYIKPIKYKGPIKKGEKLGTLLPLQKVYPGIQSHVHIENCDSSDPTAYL
Procedure: as §1

binding result [1]: binds
binding result [2]: binds
binding result (AA amyloid (human)): binds
binding result (AA amyloid (canine)): binds
binding result [3]: binds
B1: peptide p31 (peptide)
peptide: CGGYSKAQKAQAKQAKQAQKAQKAQAKQAKQ
modifications: also: label differs by assay: biotinyl-maleimide on Cys1 (tissue overlays), 125I on Tyr or 99mTc (imaging)
notes: Synthetic peptide with an N-terminal CGGY leader
